Numbering of substitutions follows the chain as printed.

The target in assay [1] is T1, B7-H3, native protein on the cell surface of A498 and SK-MES-1 cells (UniProt Q5ZPR3 29-534, limits assumed).
T1 sequence (looked up): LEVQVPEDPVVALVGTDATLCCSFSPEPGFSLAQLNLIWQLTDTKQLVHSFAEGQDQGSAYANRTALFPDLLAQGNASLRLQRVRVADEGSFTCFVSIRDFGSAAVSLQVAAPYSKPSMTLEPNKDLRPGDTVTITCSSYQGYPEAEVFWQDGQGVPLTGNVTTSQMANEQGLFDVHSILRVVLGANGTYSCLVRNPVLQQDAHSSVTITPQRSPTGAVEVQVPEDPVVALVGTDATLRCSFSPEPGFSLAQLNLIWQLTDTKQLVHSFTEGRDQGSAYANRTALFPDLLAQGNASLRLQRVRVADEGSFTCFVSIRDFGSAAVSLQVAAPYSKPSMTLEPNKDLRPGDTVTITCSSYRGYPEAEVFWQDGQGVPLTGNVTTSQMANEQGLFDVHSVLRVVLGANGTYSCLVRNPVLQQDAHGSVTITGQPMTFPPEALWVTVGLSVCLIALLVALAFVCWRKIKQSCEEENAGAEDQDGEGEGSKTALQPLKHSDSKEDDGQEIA
Put plainly: cell-based or functional assay.

For assay [2], the target named is T1, B7-H3, native protein on the cell …. Put plainly: flow cytometry (FACS) on SK-MES-1 cells. The method, then:
(§1) The recombinantly expressed antibodies were used to assess binding activity to B7-H3 by conventional ELISA according to the known art. Recombinant human B7-H3 and cyno B7-H3 were coated onto ELISA plates to detect binding at serially diluted concentrations of the anti-B7-H3 antibody preparations. The binding affinity of select anti-B7-H3 antibodies were measured on a surface plasmon resonance (SPR) instrument, such as a Biacore T200™, against human B7-H3 (table 3) and cyno B7-H3 (table 4). Cell lines expressing B7-H3, A498 and SK-MES-1, were used to assess binding by anti-B7-H3 antibodies on the native protein on the cell surface by flow cytometry according to the known art. […] In addition, the antibody-dependent cellular cytotoxicity (ADCC) activity of select anti-B7-H3 antibodies were assessed using an engineered surrogate effector cell line, kit reagents, and a luminometer (Promega, Madison, Wis.) on A498 and SK-MES-1 as target cells in table 2 under the heading “ADCC (reporter) and FIGS. 1C and 1D. Finally, specificity of each of the antibodies examined thus far were assessed by interacting with proteins from the B7 family (human B7-1, B7-2, PD-L2, PD-L1, B7-H2, B7-H4, B7-H5, B7-H6, B7-H7) against B7-H3 using ELISA. The data were plotted for each antibody on FIGS. 3A through 3E.
For orientation: In flow cytometry, cells or beads pass a laser one at a time.

In assay [3] the target is T2, Recombinant human B7-H3 (human, UniProt Q5ZPR3 29-466, limits assumed).
T2 construct: also called CD276; B7RP-2
T2 sequence: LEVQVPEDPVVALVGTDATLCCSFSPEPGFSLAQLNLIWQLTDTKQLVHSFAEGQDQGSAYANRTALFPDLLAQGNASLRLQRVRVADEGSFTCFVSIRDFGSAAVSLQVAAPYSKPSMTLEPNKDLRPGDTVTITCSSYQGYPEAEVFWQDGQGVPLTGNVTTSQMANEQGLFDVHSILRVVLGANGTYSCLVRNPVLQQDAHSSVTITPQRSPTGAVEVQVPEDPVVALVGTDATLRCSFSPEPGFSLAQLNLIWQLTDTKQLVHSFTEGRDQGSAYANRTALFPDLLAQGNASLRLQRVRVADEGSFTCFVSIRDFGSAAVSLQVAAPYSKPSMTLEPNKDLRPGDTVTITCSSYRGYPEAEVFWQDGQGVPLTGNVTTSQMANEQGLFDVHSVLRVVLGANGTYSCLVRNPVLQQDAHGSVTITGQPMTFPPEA
Put plainly: SPR (such as Biacore T200), against human B7-H3. The method, then: as §1
(In general: Surface plasmon resonance follows binding to a sensor surface in real time, without labels.)

The target of assay [4] is T1, B7-H3, native protein on the cell …. The assay can be described thus: flow cytometry (FACS) on A498 cells. The method, then: as §1
Assay [5] concerns the target Recombinant cyno B7-H3 (cyno). Put plainly: ELISA, cyno B7-H3 coated on plate. The method, then:
as §1
For orientation: An ELISA detects its analyte on a solid surface through an enzyme-linked reagent.

The target of assay [6] is T2, Recombinant human B7-H3. The assay can be described thus: ELISA, recombinant human B7-H3 coated on plate. The method, then: as §1
The target in assay [7] is Recombinant cyno B7-H3 (cyno). Put plainly: SPR (such as Biacore T200), against cyno B7-H3. The method, then:
as §1

B1: SCT-Da333 (antibody, V domains shown)
VH: QVQLQQSGPELVRPGVSVKISCKGSGYTFTDYAVHWVKQSHAKSLEWIGVINTYSGNTYYNLHFKGKATMTVDKSSSTAYMELARLTSEDSAIYYCARRRGSHRDAYFDYWGQGTTLTVSS
VL: DIVMTQSHKFMSTSVGDRVSITCRASQDVSTAVAWYQQKPGQSPKLLIYSASYRYTGVPDRFTVSGSGTDFTFTISSVQAEDLAVYYCQQHYSTPWTFGGGTKLEIK
Usually EC50 stands for the concentration needed to bring the measured effect to its halfway point. For orientation: Kd means the concentration at which binding is half-saturated. By koff is commonly meant the first-order rate constant of dissociation. In general, kon refers to the rate constant with which the complex forms. Regarding B1, the “ADCC (reporter) EC50, A498 target cells” value in assay [1] is 23.3 nM. Besides, the “ADCC (reporter) EC50, SK-MES-1 target cells” value (shortened to “ADCC … SK-MES-1 target cells”) in assay [1] is 32.8 nM. In addition, the EC50 in assay [2] was found to be 1.94 nM; in assay [4], 3.29 nM; in assay [5], 3.05 nM; in assay [6] it was 0.00833 nM. Moreover, the dissociation constant Kd in assay [3] came out at 380 nM. In addition, the koff in assay [3] stood at 0.0512 s⁻¹. The on-rate constant (kon) in assay [3] is 135000 M⁻¹ s⁻¹.

B2: SCT-Da250 (antibody, V domains shown)
VH: QGQMQQSGAELVKPGASVRLSCKTSGFTFSSFYISWLKQKPGQSLEWIAWIYAGPGYTSYNQKFTGKAQLTVDTSSSTAYMQFSSLTTEDSAIYYCARHVGRQRGYFDVWGAGTTVTVSS
VL: B1 VL with R24K, R61H
With B2, the Kd amounted to 0.398 nM in assay [7] and 2.75 nM in assay [3]. The values for the koff in assay [7] and in assay [3] were 0.000361 s⁻¹ and 0.0011 s⁻¹, respectively. For the same molecule, the kon in assay [7] was 905000 M⁻¹ s⁻¹; in assay [3], 402000 M⁻¹ s⁻¹. The “ADCC (reporter) EC50, A498 target cells” value in assay [1] came out at 2.4 nM. Besides, the “ADCC … SK-MES-1 target cells” value in assay [1] is 2.4 nM. In addition, the EC50 came to 1.46 nM in assay [2], 1.43 nM in assay [4], 0.0237 nM in assay [5] and 0.0226 nM in assay [6].

B3: SCT-Da148 (antibody, V domains shown)
VH: EVQLQQSGAELVKPGASVKLSCTASGVNIKDTYIHWVKQRPEQGLEWIGRIDPANGNRKYDPKFQGKATITADSSSNTAYLQLSSLTSEDTAVYYCARDGYYAPGYWGQGTTLTVSS
VL: DIVMTQSQKFMSTSVGDRVSVTCKASQNVGTDVAWYQQKPGQSPKLLIYSASYRFSGVPDRFTGSGSGTDFSLAISNVQSEDLAEYFCQQYNSYPYTFGGGAKLEIK
In the case of B3, the results for the Kd in assay [7] and in assay [3] were 0.503 nM and 6.41 nM, respectively. For the same molecule, the off-rate constant (koff) in assay [7] was found to be 0.000368 s⁻¹; in assay [3] it was 0.00234 s⁻¹. In addition, the association rate constant (kon) came out at 731000 M⁻¹ s⁻¹ in assay [7] and 366000 M⁻¹ s⁻¹ in assay [3]. In addition, the “ADCC (reporter) EC50, A498 target cells” value in assay [1] came out at 3.6 nM. Besides, the “ADCC … SK-MES-1 target cells” value in assay [1] came out at 4.2 nM. Further, the concentration for a half-maximal effect (EC50) in assay [2] was 1.49 nM; in assay [4], 1.6 nM; in assay [5] it was 0.0114 nM; in assay [6] it was 0.0076 nM.

B4: SCT-Da192 (antibody, V domains shown)
VH: EVQLQQSGPELVKPGASVKISCKTSGYTFTEYTMHWVKQSHGKSLEWIGVINPNNGGTTYNQKFKGKATLTVDKSSSTAYMELRSLTSEDSAVYYCARPHSLLRLRREFDYWGQGTTLTVSS
VL: QIVLTQSPALMSASPGEKVTMTCSASSSVSYMYWYQQKPRSSPKPWIYLTSNLASGVPARFSGSGSGTSYSLTISSMEAEDAATYYCQQWSSNPLTFGAGTKLELK
Take B4: the Kd in assay [7] was found to be 1.64 nM; in assay [3], 23.8 nM. Moreover, the koff in assay [7] is 0.000505 s⁻¹; in assay [3], 0.00203 s⁻¹. Further, the values for the kon in assay [7] and in assay [3] were 307000 M⁻¹ s⁻¹ and 85100 M⁻¹ s⁻¹, respectively. In addition, the “ADCC (reporter) EC50, A498 target cells” value in assay [1] came out at 1.1 nM. Further, the “ADCC … SK-MES-1 target cells” value in assay [1] amounted to 0.9 nM. Besides, the concentration giving a half-maximal response (EC50) in assay [2] turned out to be 2.32 nM; in assay [4], 2.62 nM; in assay [5], 0.0176 nM; in assay [6], 0.0109 nM.

B5: SCT-Da182 (antibody, V domains shown)
VH: EVQLQQSGPELVKPGASMKISCKVSGFSFTGYTMNWVKQSHGKNLEWIGLINTYNGGTFYNQKFKAKATLTVDKSSSTAHMELLSLTSEDSAVYYCARSPGRYSMDYWGQGTSVTVSS
VL: DIVLTQSPASLAVSLGQRATISCKASQSVDYNGYSYLNWYQQKPGQPPKLLIYPASNLESGIPARFSGSGSGTDFTLNIHPVEEEDAATYYCQQSKEDPYTFGGGTKLEIK
Regarding B5, the Kd in assay [7] is 1.22 nM; in assay [3] it was 10.9 nM. The koff in assay [7] was found to be 0.000283 s⁻¹; in assay [3] it was 0.00101 s⁻¹. For the same molecule, the kon in assay [7] stood at 232000 M⁻¹ s⁻¹; in assay [3], 92700 M⁻¹ s⁻¹. In assay [1], the “ADCC (reporter) EC50, A498 target cells” value was 4.5 nM. In addition, the “ADCC … SK-MES-1 target cells” value in assay [1] was 4.6 nM. Further, the EC50 in assay [2] is 4.09 nM; in assay [4], 3.7 nM; in assay [5] it was 0.00882 nM; in assay [6], 0.0105 nM.

Values taken from patent US20220235134A1 (SINGLE CELL TECHNOLOGY, published 2022).
